Reference: the supplement of paper PMC7877785
± gives the uncertainty stated by the source.

Test: self-splicing fitness, log relative to wild type (ln ratio); higher = more splicing; Tetrahymena group I intron in knt gene, E. coli kanamycin selection, DiMSum; sequences stand for … in CUCUCU…GGAGGGAAAAGUUAUCAGGCAUGCACCUGGUAGCUAGUCUUUAAACCAAUAGAUUGCAUCGGUUUAAAAGGCAAGACCGUCAAAUUGCGGGAAAGGGGUCAACAGCCGUUCAGUACCAAGUCUCAGGGGAAACUUUGAGAUGGCCUUGCAAAGGGUAUGGUAAUAAGCUGACGGACAUGGUCCUAACCACGCAGCCAAGUCCUAAGUCAACAGAUCUUCUGUUGAUAUGGAUGCAGUUCACAGACUAAAUGUCGGUCGGGGAAGAUGUAUUCUUCUCAUAAGAUAUAGUCGGACCUCUCCUUAAUGGGAGCUAGCGGAUGAAGUGAUGCAACACUGGAGCCGCUGGGAACUAAUUUGUAUGCGAAAGUAUAUUGAUUAGUUUUGGAGUACUCGUGGUCG
Procedure, shortened: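 Colonies from six replicate transformations of E. coli BL21(DE3) were pooled and amplicon-sequenced on an Illumina HiSeq 2500. The library placed an intron with all eight P1ex-region nucleotides randomised inside the knt kanamycin-resistance gene on pET-22b(+), and cells grew overnight at 37°C or 30°C on LB agar with or without 25 μg/mL kanamycin (plus 100 μg/mL carbenicillin, 50 μM IPTG, 0.2% rhamnose). Fitness is the DiMSum error-weighted combination of wild-type-normalised replicate fold changes, kanamycin versus none.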

Row | Sequence | self-splicing fitness (ln) (30 °C) | self-splicing fitness (ln) (37 °C)
1 | AUACAGCAAUAUUACGGCCC | -1.15 ± 0.19 | -0.184 ± 0.28
2 | AUACAGCAAUAUUACGGCGA | -1.08 ± 0.096 | -0.781 ± 0.11
3 | AUACAGCAAUAUUACGGGAC | -2.14 ± 0.15 | -1.74 ± 0.17
4 | AUACAGCAAUAUUACGGGGA | -2.98 ± 0.21 | -2.3 ± 0.14
5 | AUACAGCAAUAUUACGGGGC | -2.65 ± 0.12 | -3.57 ± 0.2
6 | AUACAGCAAUAUUACGUAGA | -2.11 ± 0.085 | -0.327 ± 0.076
7 | AUACAGCAAUAUUACGUCCC | -0.874 ± 0.14 | -0.261 ± 0.18
8 | AUACAGCAAUAUUACGUGAC | -1.57 ± 0.095 | -0.945 ± 0.13
9 | AUACAGCAAUAUUACGUGAG | -1.51 ± 0.06 | -0.677 ± 0.097
10 | AUACAGCAAUAUUACGUGCA | -1.01 ± 0.083 | -0.648 ± 0.085
11 | AUACAGCAAUAUUACGUGGU | -2.71 ± 0.13 | -2.27 ± 0.14
12 | AUACAGCAAUAUUACGUGUA | -2.3 ± 0.093 | -1.32 ± 0.095
13 | AUACAGCAAUAUUACGUUAA | -3.26 ± 0.18 | -1.41 ± 0.11
14 | AUACAGCAAUAUUACGUUCC | -2.46 ± 0.15 | -0.684 ± 0.14
15 | AUACAGCAAUAUUACGUUGA | -2.53 ± 0.095 | -1.44 ± 0.088
16 | AUAGAGCAAUAUUACGACAC | -0.57 ± 0.15 | -0.0339 ± 0.2
17 | AUAGAGCAAUAUUACGACCC | -2.56 ± 0.47 | -1.4 ± 0.42
18 | AUAGAGCAAUAUUACGACUC | -0.707 ± 0.11 | -0.0412 ± 0.15
19 | AUAGAGCAAUAUUACGAGUG | -3.25 ± 0.21 | -0.0938 ± 0.18
20 | AUAGAGCAAUAUUACGCCUU | -1.66 ± 0.12 | 0.354 ± 0.16
21 | AUAGAGCAAUAUUACGCUAG | -1.01 ± 0.15 | -0.475 ± 0.15
22 | AUAGAGCAAUAUUACGCUCC | -0.896 ± 0.37 | -1.91 ± 0.41
23 | AUAGAGCAAUAUUACGGACA | -2.38 ± 0.27 | -0.896 ± 0.33
24 | AUAGAGCAAUAUUACGGAGG | -3.24 ± 0.22 | -1.8 ± 0.23

Row | Sequence | self-splicing fitness (ln) (30 °C) | self-splicing fitness (ln) (37 °C)
25 | AUAGAGCAAUAUUACGGAUA | -2.83 ± 0.31 | -1.8 ± 0.39
26 | AUAGAGCAAUAUUACGGAUG | -1.43 ± 0.12 | -2.91 ± 0.31
27 | AUAGAGCAAUAUUACGGCUA | 0.361 ± 0.077 | 0.0589 ± 0.098
28 | AUAGAGCAAUAUUACGGGCA | -2.19 ± 0.097 | -1.28 ± 0.11
29 | AUAGAGCAAUAUUACGGGCU | -4.11 ± 0.27 | -2.51 ± 0.29
30 | AUAGAGCAAUAUUACGGGGG | -3.2 ± 0.27 | -2.72 ± 0.4
31 | AUAGAGCAAUAUUACGGUAU | -0.341 ± 0.075 | -0.0895 ± 0.11
32 | AUAGAGCAAUAUUACGGUGU | -1.24 ± 0.1 | -0.567 ± 0.15
33 | AUAGAGCAAUAUUACGGUUC | -3.21 ± 0.24 | -1.29 ± 0.22
34 | AUAGAGCAAUAUUACGUAGU | -1.69 ± 0.12 | -0.153 ± 0.15
35 | AUAGAGCAAUAUUACGUAUG | -3.22 ± 0.17 | -0.602 ± 0.14
36 | AUAGAGCAAUAUUACGUGCU | -1.24 ± 0.25 | –
37 | AUAGAGCAAUAUUACGUGGA | -3.98 ± 0.27 | -3.39 ± 0.29
38 | AUAGAGCAAUAUUACGUGGC | -3.18 ± 0.4 | -2.7 ± 0.26
39 | AUAGAGCAAUAUUACGUGUG | -1.61 ± 0.1 | -2.39 ± 0.2
40 | AUAGAGCAAUAUUACGUUCA | 0.258 ± 0.11 | -0.633 ± 0.12
41 | AUAGAGCAAUAUUACGUUUC | -3.32 ± 0.22 | -1.46 ± 0.24
42 | AUAUAGCAAUAUUACGACCU | -0.348 ± 0.14 | 0.267 ± 0.15
43 | AUAUAGCAAUAUUACGACGU | 0.51 ± 0.13 | 0.433 ± 0.17
44 | AUAUAGCAAUAUUACGAGAC | -3.02 ± 0.39 | -1.61 ± 0.49
45 | AUAUAGCAAUAUUACGAGUU | -3.19 ± 0.18 | -1.46 ± 0.15
46 | AUAUAGCAAUAUUACGAUGG | -3.07 ± 0.31 | -0.944 ± 0.26
47 | AUAUAGCAAUAUUACGCAGA | -2.82 ± 0.31 | -1.42 ± 0.21
48 | AUAUAGCAAUAUUACGCCCU | -0.155 ± 0.15 | 0.32 ± 0.18

Row | Sequence | self-splicing fitness (ln) (30 °C) | self-splicing fitness (ln) (37 °C)
49 | AUAUAGCAAUAUUACGCCUU | -1.01 ± 0.12 | -0.431 ± 0.12
50 | AUAUAGCAAUAUUACGCGUA | -1.11 ± 0.19 | -0.256 ± 0.13
51 | AUAUAGCAAUAUUACGCGUC | -3.3 ± 0.26 | -2.26 ± 0.28
52 | AUAUAGCAAUAUUACGCUCA | -0.563 ± 0.18 | 0.319 ± 0.22
53 | AUAUAGCAAUAUUACGCUCG | -0.992 ± 0.12 | 0.0571 ± 0.18
54 | AUAUAGCAAUAUUACGCUUA | -1.53 ± 0.16 | -0.0426 ± 0.15
55 | AUAUAGCAAUAUUACGGACU | -1.04 ± 0.11 | -0.14 ± 0.16
56 | AUAUAGCAAUAUUACGGCAU | -0.195 ± 0.089 | 0.155 ± 0.12
57 | AUAUAGCAAUAUUACGGGAU | -2.27 ± 0.16 | -0.966 ± 0.16
58 | AUAUAGCAAUAUUACGGGUC | -4.55 ± 0.46 | -2.17 ± 0.25
59 | AUAUAGCAAUAUUACGGUAA | -1.94 ± 0.15 | -0.869 ± 0.13
60 | AUAUAGCAAUAUUACGGUGC | -2.77 ± 0.38 | -1.94 ± 0.27
61 | AUAUAGCAAUAUUACGGUUU | -1.31 ± 0.091 | -0.854 ± 0.11
62 | AUAUAGCAAUAUUACGUAUU | -2.94 ± 0.22 | -1.63 ± 0.21
63 | AUAUAGCAAUAUUACGUGGA | -3.57 ± 0.27 | -3.04 ± 0.26
64 | AUAUAGCAAUAUUACGUGGG | -3.53 ± 0.28 | -3.28 ± 0.33
65 | AUAUAGCAAUAUUACGUUCC | -1.69 ± 0.29 | –
66 | AUCAAGCAAUAUUACGACCA | -0.886 ± 0.13 | 0.0541 ± 0.14
67 | AUCAAGCAAUAUUACGACGU | 0.145 ± 0.071 | -0.14 ± 0.067
68 | AUCAAGCAAUAUUACGACUU | -0.501 ± 0.049 | 0.297 ± 0.064
69 | AUCAAGCAAUAUUACGAGUU | -1.57 ± 0.081 | -1.42 ± 0.097
70 | AUCAAGCAAUAUUACGAUGA | -0.483 ± 0.076 | -0.19 ± 0.086
71 | AUCAAGCAAUAUUACGCACA | -0.256 ± 0.066 | -0.0877 ± 0.076
72 | AUCAAGCAAUAUUACGCACG | -2.1 ± 0.15 | -2.28 ± 0.18

Row | Sequence | self-splicing fitness (ln) (30 °C) | self-splicing fitness (ln) (37 °C)
73 | AUCAAGCAAUAUUACGCAUG | -3.06 ± 0.12 | -1.56 ± 0.098
74 | AUCAAGCAAUAUUACGCCAU | -2.88 ± 0.19 | -1.44 ± 0.13
75 | AUCAAGCAAUAUUACGCCUC | -2.77 ± 0.23 | -1.6 ± 0.21
76 | AUCAAGCAAUAUUACGCGUU | -2.66 ± 0.089 | -0.858 ± 0.095
77 | AUCAAGCAAUAUUACGCUAA | -2.95 ± 0.17 | -1.1 ± 0.14
78 | AUCAAGCAAUAUUACGCUGU | -2.62 ± 0.097 | -1.1 ± 0.084
79 | AUCAAGCAAUAUUACGGAAC | -4.1 ± 0.15 | -2.3 ± 0.12
80 | AUCAAGCAAUAUUACGGACA | -0.967 ± 0.075 | -0.478 ± 0.093
81 | AUCAAGCAAUAUUACGGAGA | -2.57 ± 0.16 | -2.81 ± 0.24
82 | AUCAAGCAAUAUUACGGCUG | -0.736 ± 0.071 | -0.0189 ± 0.11
83 | AUCAAGCAAUAUUACGGGAG | -1.16 ± 0.097 | -0.571 ± 0.099
84 | AUCAAGCAAUAUUACGGGGU | -3.94 ± 0.2 | -2.48 ± 0.15
85 | AUCAAGCAAUAUUACGGUUA | -1.06 ± 0.092 | -0.342 ± 0.095
86 | AUCAAGCAAUAUUACGUCGA | -1.36 ± 0.068 | -0.157 ± 0.068
87 | AUCAAGCAAUAUUACGUGGU | -2.83 ± 0.2 | -3.11 ± 0.21
88 | AUCCAGCAAUAUUACGAAGA | -1.56 ± 0.18 | -1.64 ± 0.16
89 | AUCCAGCAAUAUUACGAAGG | -3.07 ± 0.2 | -2.8 ± 0.23
90 | AUCCAGCAAUAUUACGACAC | -0.468 ± 0.11 | -0.488 ± 0.16
91 | AUCCAGCAAUAUUACGACGA | -0.497 ± 0.14 | 0.0611 ± 0.12
92 | AUCCAGCAAUAUUACGACGU | -0.176 ± 0.057 | 0.696 ± 0.081
93 | AUCCAGCAAUAUUACGACUA | -0.459 ± 0.097 | -0.0254 ± 0.084
94 | AUCCAGCAAUAUUACGAGUA | -2.01 ± 0.18 | -1.07 ± 0.12
95 | AUCCAGCAAUAUUACGAGUG | -1.66 ± 0.095 | -1.77 ± 0.11
